Laboratory results from patent KR20220072468A (dated 2022).

Biological target: T1, 인간 TIGIT-His (human, UniProt Q495A1 22-141)
T1 construct: extracellular domain; also called TIGIT-6x His; TIGIT 항원
T1 sequence: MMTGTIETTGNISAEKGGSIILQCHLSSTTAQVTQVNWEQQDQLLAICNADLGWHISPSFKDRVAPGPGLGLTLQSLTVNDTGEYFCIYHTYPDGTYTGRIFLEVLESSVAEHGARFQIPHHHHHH
Experiment: BLI (Octet QK), antibody on AHC biosensor, human TIGIT-His 15 nM ~ 1.88 nM, 1:1 global fit

Kd: 3.43 nM
koff: 0.00136 s⁻¹
kon: 397000 M⁻¹ s⁻¹
B1: SA2209 (antibody, V domains shown)
VH: QVQLQESGPGLVKPSGTLSLTCAVSGVSIRQGHWWSWVRQPPGKGLEWIGEIYQTGRTNYNPSLKSRVTISVGKSRNHISLKLSSVTAADTAVYYCTTGSGWYPIDYWGQGTLVTVSS
VL: SYELTQDPAVSVALGQTVRITCQGDSLRGFYASWYQQKPGQAPLLVLYGVKDRPSGIPDRFSGSRSGTTASLTITGAQAEDEADYYCNSRDSNGAMMFGGGTKLTVL
notes: also called 항-TIGIT 항체; anti-TIGIT antibody
